Data taken from FireProtDB (doi:10.1016/s0301-4622(99)00119-2).

B1: Cytochrome b5, P00171 (parent)
chain: MAEESSKAVKYYTLEEIQKHNNSKSTWLILHYKVYDLTKFLEEHPGGEEVLREQAGGDATENFEDVGHSTDARELSKTFIIGELHPDDRSKITKPSESIITTIDSNPSWWTNWLIPAISALFVALIYHLYTSEN

Variants of: B1
Details: Bos taurus, pH 7, Thermal, Absorbance, Sodium phosphate 100 mM, structure 1CYO, whole UniProt chain shown

| Variant | ddG of mutation (higher = less stable) (66.7 °C) [kcal/mol] | ddG of mutation (higher = less stable) (77.6 °C) [kcal/mol] |
| --- | --- | --- |
| MAEESSKAVKYYTLEEIQKHNNSKSTWLILHYKVYDLTKFLEEHPGGEEYLREQAGGDATENFEDVGHSTDARELSKTFIIGELHPDDRSKITKPSESIITTIDSNPSWWTNWLIPAISALFVALIYHLYTSEN [V50Y] | 1.53 | 1.55 |
| MAEESSKAVKYYTLEEIQKHNNSKSTWLILHYKVYDLTKFLEEHPGGEEHLREQAGGDATENFEDVGHSTDARELSKTFIIGELHPDDRSKITKPSESIITTIDSNPSWWTNWLIPAISALFVALIYHLYTSEN [V50H] |  | 1.39 |
| MAEESSKAVKYYTLEEIQKHNNSKSTWLILHYKVYDLTKFLEEHPGGEEELREQAGGDATENFEDVGHSTDARELSKTFIIGELHPDDRSKITKPSESIITTIDSNPSWWTNWLIPAISALFVALIYHLYTSEN [V50E] | 2.68 | 2.06 |
